Results published in patent publication US20190345459A1 (YEDA RESEARCH AND DEVELOPMENT, published 2019).

Tests used:
[1] = target: T1, tetravalent scaffoldin ScafCA(CBM)TF (SEQ ID No. 5); assay: electrophoretic mobility on non-denaturing PAGE, equimolar enzymes and scaffoldin
T1 chain: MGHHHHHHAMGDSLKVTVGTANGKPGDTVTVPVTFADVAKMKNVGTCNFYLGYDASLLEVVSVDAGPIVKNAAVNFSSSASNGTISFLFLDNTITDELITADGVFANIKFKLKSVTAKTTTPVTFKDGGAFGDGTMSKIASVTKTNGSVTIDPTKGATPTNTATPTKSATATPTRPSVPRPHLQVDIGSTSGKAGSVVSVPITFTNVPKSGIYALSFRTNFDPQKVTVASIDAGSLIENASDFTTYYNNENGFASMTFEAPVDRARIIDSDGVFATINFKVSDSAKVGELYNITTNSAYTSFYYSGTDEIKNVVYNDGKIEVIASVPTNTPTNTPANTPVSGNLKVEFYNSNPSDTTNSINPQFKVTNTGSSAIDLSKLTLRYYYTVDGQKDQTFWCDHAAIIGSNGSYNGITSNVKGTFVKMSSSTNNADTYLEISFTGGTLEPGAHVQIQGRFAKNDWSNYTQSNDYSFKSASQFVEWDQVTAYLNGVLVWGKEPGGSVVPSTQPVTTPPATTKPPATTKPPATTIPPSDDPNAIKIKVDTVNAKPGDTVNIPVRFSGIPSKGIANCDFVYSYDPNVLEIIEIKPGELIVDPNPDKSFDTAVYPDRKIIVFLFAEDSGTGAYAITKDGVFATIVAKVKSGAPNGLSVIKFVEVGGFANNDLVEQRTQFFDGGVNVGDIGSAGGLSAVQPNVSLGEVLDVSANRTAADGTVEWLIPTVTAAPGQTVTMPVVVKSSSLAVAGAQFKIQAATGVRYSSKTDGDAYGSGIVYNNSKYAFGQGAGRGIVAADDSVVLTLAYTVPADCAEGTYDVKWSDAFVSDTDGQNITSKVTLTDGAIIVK

[2] = target: T2, C. thermocellum cohesin 3 from CipA (Clostridium thermocellum, UniProt Q06851 560-704); assay: affinity-based ELISA, cohesin-dockerin binding
T2 construct: domain: cohesin 3; also called cohesin T
T2 sequence: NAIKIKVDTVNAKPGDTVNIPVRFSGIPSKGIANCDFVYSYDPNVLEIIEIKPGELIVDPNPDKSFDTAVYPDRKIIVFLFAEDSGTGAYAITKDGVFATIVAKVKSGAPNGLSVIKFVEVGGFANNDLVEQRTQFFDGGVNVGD

B1: Xyn11V-a (SEQ ID No. 3) (enzyme)
chain: MHHHHHHDVVITSNQTGTHGGYNFEYWKDTGNGTMVLKDGGAFSCEWSNINNILFRKGFKYDETKTHDQLGYITVTYSCNYQPNGNSYLGVYGWTSNPLVEYYIIESWGTWRPPGATPKGTITVDGGTYEIYETTRVNQPSIKGTATFQQYWSVRTSKRTSGTISVTEHFKAWERLGMKMGKMYEVALVVEGYQSSGKADVTSMTITVGNAPSTSSPPGPTPEPTPRSAFSKIEAEEYNSLKSSTIQTIGTSDGGSGIGYIESGDYLVFNKINFGNGANSFKARVASGADTPTNIQLRLGSPTGTLIGTLTVASTGGWNNYEEKSCSITNTTGQHDLYLVFSGPVNIDYFIFDSKGVNPTPTPTSTTTPTPKFIYGDVDGNGSVRINDAVLIRDYVLGKINEFPYEYGMLAADVDGNGSIKINDAVLVRDYVLGKIFLFPVEEKEELEHHHHHH
B1: binds [1].

B2: t-48A (SEQ ID No. 4) (enzyme)
chain: MAHHHHHHAVESSSTGLGDLNGDGNINSSDLQALKRHLLGISPLTGEALLRADVNRSGKVDSTDYSVLKRYILRIITEVPGHDSAEVTVREIDPNTSSYDQAFLEQYEKIKDPASGYFREFNGLLVPYHSVETMIVEAPDHGHQTTSEAFSYYLWLEAYYGRVTGDWKPLHDAWESMETFIIPGTKDQPTNSAYNPNSPATYIPEQPNADGYPSPLMNNVPVGQDPLAQELSSTYGTNEIYGMHWLLDVDNVYGFGFCGDGTDDAPAYINTYQRGARESVWETIPHPSCDDFTHGGPNGYLDLFTDDQNYAKQWRYTNAPDADARAVQVMFWAHEWAKEQGKENEIAGLMDKASKMGDYLRYAMFDKYFKKIGNCVGATSCPGGQGKDSAHYLLSWYYSWGGSLDTSSAWAWRIGSSSSHQGYQNVLAAYALSQVPELQPDSPTGVQDWATSFDRQLEFLQWLQSAEGGIAGGATNSWKGSYDTPPTGLSQFYGMYYDWQPVWNDPPSNNWFGFQVWNMERVAQLYYVTGDARAEAILDKWVPWAIQHTDVDADNGGQNFQVPSDLEWSGQPDTWTGTYTGNPNLHVQVVSYSQDVGVTAALAKTLMYYAKRSGDTTALATAEGLLDALLAHRDSIGIATPEQPSWDRLDDPWDGSEGLYVPPGWSGTMPNGDRIEPGATFLSIRSFYKNDPLWPQVEAHLNDPQNVPAPIVERHRFWAQVEIATAFAAHDELFGAGAP
B2: binds [1].

B3: f-5A (SEQ ID No. 2) (enzyme)
chain: MAHHHHHHAPSPGTKLVPTWGDTNCDGVVNVADVVVLNRFLNDPTYSNITDQGKVNADVVDPQDKSGAAVDPAGVKLTVADSEAILKAIVELITLPQAVPGTQPGTGTPVERYGKVQVCGTQLCDEHGNPVQLRGMSTHGIQWFDHCLTDSSLDALAYDWKADIIRLSMYIQEDGYETNPRGFTDRMHQLIDMATARGLYVIVDWHILTPGDPHYNLDRAKTFFAEIAQRHASKTNVLYEIANEPNGVSWASIKSYAEEVIPVIRQRDPDSVIIVGTRGWSSLGVSEGSGPAEIAANPVNASNIMYAFHFYAASHRDNYLNALREASELFPVFVTEFGTETYTGDGANDFQMADRYIDLMAERKIGWTKWNYSDDFRSGAVFQPGTCASGGPWSGSSLKASGQWVRSKLQS
B3: binds [1].

B4: Xyn-c-Lac (SEQ ID No. 1), chimeric bifunctional xylanase-dockerin-laccase (enzyme)
chain: MGSSHHHHHHKNADSYAKKPHISALNAPQLDQRYKNEFTIGAAVEPYQLQNEKDVQMLKRHFNSIVAENVMKPISIQPEEGKFNFEQADRIVKFAKANGMDIRFHTLVWHSQVPQWFFLDKEGKPMVNETDPVKREQNKQLLLKRLETHIKTIVERYKDDIKYWDVVNEVVGDDGKLRNSPWYQIAGIDYIKVAFQAARKYGGDNIKLYMNDYNTEVEPKRTALYNLVKQLKEEGVPIDGIGHQSHIQIGWPSEAEIEKTINMFAALGLDNQITELDVSMYGWPPRAYPTYDAIPKQKFLDQAARYDRLFKLYEKLSDKISNVTFWGIADNHTWLDSRADVYYDANGNVVVDPNAPYAKVEKGKGKDAPFVFGPDYKVKPAYWAIIDHKSAGENLYFQGTSPVIVYGDYNNDGNVDALDFAGLKKYIMAADHAYVKNLDVNLDNEVNAFDLAILKKYLLGMVSKLPSQDPNSVTGTVVELAPGIHAGFTGRAGGVSGEPYATLNLGDHVGDDPAAVAENRRRAALGFGISPDRVVWMNQVHGATAVTVTGSGQAGDVDAVVTPEAGLALAVLVADCLPLLVADAAAGVIGAAHAGRPGMAAGVVPALVAEMARHGARPERCVALLGPAICGRCYEVPRDLQDRVARTVPEARCTTAEGTPGLDIRAGVTAQLTNLGVTNITHDSRCTRESADLFSYRRDATTGRFAGYVWRVP
notes: Recombinant, expressed in E. coli, His-tagged; also called xylanase-tagged laccase; bifunctional xylanase-laccase
B4: no binding [2].
